Assay results from patent US20100233154A1, “TARGETED BINDING AGENTS DIRECTED TO HEPARANASE AND USES THEREOF 463” (MedImmune Limited, priority 2008, published 2010).

T1: Recombinant Hpa1 (Homo sapiens, UniProt Q9Y251)
T1 construct: Heparanase 8 and 50 kDa sub-units were cloned into pacGP67 as Sma 1-EcoR1 fragments; made in house; host or cells: Hi5 insect cells, baculovirus (pFastBac Dual)
T1 sequence (Q9Y251 158-543 limits assumed): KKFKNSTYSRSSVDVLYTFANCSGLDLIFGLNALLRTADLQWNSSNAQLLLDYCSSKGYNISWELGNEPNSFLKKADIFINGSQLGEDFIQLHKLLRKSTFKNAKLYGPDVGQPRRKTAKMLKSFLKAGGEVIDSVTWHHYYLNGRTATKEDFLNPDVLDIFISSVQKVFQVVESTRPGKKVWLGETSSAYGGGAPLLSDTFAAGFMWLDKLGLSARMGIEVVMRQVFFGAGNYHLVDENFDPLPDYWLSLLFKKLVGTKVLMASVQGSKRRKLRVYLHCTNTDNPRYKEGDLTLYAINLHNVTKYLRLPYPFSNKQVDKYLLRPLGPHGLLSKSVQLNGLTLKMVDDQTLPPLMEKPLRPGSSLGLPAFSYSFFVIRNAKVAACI
T1 sequence (Q9Y251 36-109 limits assumed): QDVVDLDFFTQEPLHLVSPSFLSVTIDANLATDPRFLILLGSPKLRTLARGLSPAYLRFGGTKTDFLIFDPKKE

T2: human heparanase (Homo sapiens, UniProt Q9Y251)
T2 sequence (Q9Y251 36-543): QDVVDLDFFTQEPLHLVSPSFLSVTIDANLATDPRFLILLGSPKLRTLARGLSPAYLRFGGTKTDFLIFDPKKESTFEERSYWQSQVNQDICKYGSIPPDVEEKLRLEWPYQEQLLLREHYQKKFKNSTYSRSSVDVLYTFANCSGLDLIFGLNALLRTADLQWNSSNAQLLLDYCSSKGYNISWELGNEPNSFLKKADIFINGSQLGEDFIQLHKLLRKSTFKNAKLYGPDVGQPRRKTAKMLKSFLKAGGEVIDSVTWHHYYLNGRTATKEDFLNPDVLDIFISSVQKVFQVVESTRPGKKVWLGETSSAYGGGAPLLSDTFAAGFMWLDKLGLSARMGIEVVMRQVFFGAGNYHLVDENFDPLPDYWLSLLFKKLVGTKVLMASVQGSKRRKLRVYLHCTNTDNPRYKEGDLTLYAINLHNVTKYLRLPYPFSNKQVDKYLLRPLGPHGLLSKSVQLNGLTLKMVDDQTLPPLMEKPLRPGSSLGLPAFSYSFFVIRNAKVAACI

T3: murine heparanase (Mus musculus, UniProt Q6YGZ1)
T3 construct: made in house; host or cells: Hek293 cells (conditioned medium), inferred for the ELISA
T3 sequence (Q6YGZ1 28-535): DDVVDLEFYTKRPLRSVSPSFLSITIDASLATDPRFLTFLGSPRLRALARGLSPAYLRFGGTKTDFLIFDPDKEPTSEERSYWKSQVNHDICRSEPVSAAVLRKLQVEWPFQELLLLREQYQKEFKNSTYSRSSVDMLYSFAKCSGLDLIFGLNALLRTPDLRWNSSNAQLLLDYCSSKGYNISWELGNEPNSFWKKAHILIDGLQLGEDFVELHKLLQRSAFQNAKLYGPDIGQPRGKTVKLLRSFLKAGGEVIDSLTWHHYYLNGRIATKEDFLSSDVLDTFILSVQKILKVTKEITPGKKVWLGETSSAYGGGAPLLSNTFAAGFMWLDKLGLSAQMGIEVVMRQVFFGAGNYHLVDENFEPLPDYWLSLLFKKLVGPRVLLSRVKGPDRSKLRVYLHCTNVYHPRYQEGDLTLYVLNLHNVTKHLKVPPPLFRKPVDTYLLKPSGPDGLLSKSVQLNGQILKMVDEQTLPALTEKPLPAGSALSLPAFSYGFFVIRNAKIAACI

T4: recombinant human heparanase (Homo sapiens, UniProt Q9Y251)
T4 construct: Heparanase 8 and 50 kDa sub-units were cloned into pacGP67 as Sma 1-EcoR1 fragments; made in house; host or cells: Hi5 insect cells, baculovirus (pFastBac Dual)
T4 sequence (Q9Y251 158-543 limits assumed): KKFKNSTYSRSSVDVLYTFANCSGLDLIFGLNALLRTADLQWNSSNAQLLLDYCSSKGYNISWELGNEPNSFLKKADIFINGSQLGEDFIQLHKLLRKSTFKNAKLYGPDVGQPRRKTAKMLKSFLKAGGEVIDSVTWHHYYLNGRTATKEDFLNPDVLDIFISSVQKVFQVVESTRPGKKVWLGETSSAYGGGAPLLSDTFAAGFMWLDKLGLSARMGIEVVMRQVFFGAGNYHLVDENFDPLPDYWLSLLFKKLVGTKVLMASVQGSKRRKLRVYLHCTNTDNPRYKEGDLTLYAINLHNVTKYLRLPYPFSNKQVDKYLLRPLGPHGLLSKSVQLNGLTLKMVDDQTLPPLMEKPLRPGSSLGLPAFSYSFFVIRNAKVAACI
T4 sequence (Q9Y251 36-109 limits assumed): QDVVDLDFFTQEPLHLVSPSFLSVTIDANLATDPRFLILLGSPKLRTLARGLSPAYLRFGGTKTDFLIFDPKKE

T5: recombinant heparanase captured with rabbit anti-heparanase antibody (Homo sapiens, UniProt Q9Y251)
T5 construct: Heparanase 8 and 50 kDa sub-units were cloned into pacGP67 as Sma 1-EcoR1 fragments; made in house; host or cells: Hi5 insect cells, baculovirus (pFastBac Dual)
T5 sequence (Q9Y251 158-543 limits assumed): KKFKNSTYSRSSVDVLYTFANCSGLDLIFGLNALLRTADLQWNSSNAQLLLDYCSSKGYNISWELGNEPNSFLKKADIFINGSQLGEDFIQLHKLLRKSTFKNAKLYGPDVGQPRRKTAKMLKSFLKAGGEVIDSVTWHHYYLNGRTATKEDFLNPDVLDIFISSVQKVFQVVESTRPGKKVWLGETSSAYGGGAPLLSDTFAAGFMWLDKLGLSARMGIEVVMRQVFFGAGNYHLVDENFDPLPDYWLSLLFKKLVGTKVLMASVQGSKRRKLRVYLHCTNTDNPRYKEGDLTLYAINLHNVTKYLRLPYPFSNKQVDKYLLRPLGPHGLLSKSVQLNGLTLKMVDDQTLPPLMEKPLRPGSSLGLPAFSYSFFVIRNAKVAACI
T5 sequence (Q9Y251 36-109 limits assumed): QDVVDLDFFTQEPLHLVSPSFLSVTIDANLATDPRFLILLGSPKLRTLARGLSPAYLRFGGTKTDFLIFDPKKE


Columns and labels:
HCT116 xenograft = experiment: Subcutaneous xenograft tumour growth, HCT116; format: in vivo, SCID mice; details: once weekly i.p.; 10E9.1 at 15 mg per kg
Procedure: (§1) MCF7-Hpa1#19 and HCT116 tumour cells were harvested from sub-confluent cultures. A total of 5×10^6 (MCF7-Hpa1#19) or 10^7 (HCT116) tumour cells were inoculated subcutaneously into the flank of male SCID mice. HCT116 tumour cells were implanted in PBS; […] cells were implanted in PBS containing 50% matrigel.
(§2) When tumours had attained ˜200 mm^3, tumour bearing mice were randomised into treatment groups and dosed with the following; PBS; an isotype matched control IgG2 antibody, 15 mg per kg; anti-heparanase antibody 10E9.1, 7.5 or 15 mg per kg. All treatments were administered once weekly i.p. Tumour growth was measured twice per week using calipers and tumour volumes calculated according to an ellipsoid volume is formula (3.142/6×length×width×width) from measures of the largest tumour diameter and two opposing widths (FIG. 11).

cynomolgus heparanase = experiment: Cross species capture ELISA, cynomolgus heparanase; format: binding; details: min 0.06, max 1.5 OD units
Procedure: (§3) Initially, cross species binding to human, murine and cynomolgus heparanase was determined in an ELISA assay in which heparanase was captured onto plates using a rabbit anti-heparanase antibody (Raybiotech, Cat. IP-14-155). Exhaustive supernatants were added to the plates at a final dilution of 1:5 and bound antibody detected with a rabbit anti-human IgG Fc.

MCF7-Hpa1#19 xenograft = experiment: Subcutaneous xenograft tumour growth, MCF7-Hpa1#19; format: in vivo, SCID mice; details: once weekly i.p.; 10E9.1 at 7.5 or 15 mg per kg
Procedure: as §1, §2

MDA MB231-Hpa1#4 cells = experiment: Heparanase expression in cells cultured with antibody (Western blot); format: cell-based, human; details: 25 μg per ml antibody, 72 hrs, compared to untreated or IgG2 control
Procedure: MDA MB231-Hpa1#4 cells were cultured in the presence of 25 μg per ml anti-human heparanase antibody or control IgG2 antibody (Sigma Cat. No. 1504-1MG) for 72 hrs. Following the removal of culture medium, protein extracts were prepared from the cells in 100 μl RIPA buffer and separated on […] gels and transferred to nitrocellulose as described above. Western blots were probed with an anti-heparanase antibody that detected only pro-heparanase (SantaCruz Cat. No. SC25825).

Recombinant Hpa1 = target: T1, Recombinant Hpa1; experiment: Medium resolution Biacore affinity; format: binding
Procedure: For medium resolution Biacore™ tests, cloned and purified antibodies were used. Each of three purified antibodies (10E9.1, 15A1.2, and 15A11.1) were captured onto a high-density goat anti-human antibody surface over a CM4 Biacore™ chip. Recombinant Hpa1 was diluted to the desired concentration (1 nM and 10 nM) in 10 mM HEPES, 150 mM NaCl, 0.005% tween-20, 0.1 mg per ml BSA pH7.4 (25° C.) immediately prior to injection. Data were fit globally to a 1:1 interaction model with a term for mass transport included. The resulting KD values are summarised below in Table 4.

human heparanase = target: T2, human heparanase; experiment: Cross species capture ELISA, human heparanase; format: binding
Procedure: as §3

murine heparanase = target: T3, murine heparanase; experiment: Cross species capture ELISA, murine heparanase; format: binding; details: min 0.06, max 0.9 OD units
Procedure: as §3

[1] = target: T4, recombinant human heparanase; experiment: ELISA binding to directly coated recombinant human heparanase
Procedure: (§4) Titres of antibodies from Campaigns 1 and 2 were determined in an ELISA. Costar 3368 medium binding plates were coated directly with recombinant human heparanase or plates were coated with Rabbit anti-heparanase antibody (Raybiotech, Cat. IP-14-155) to capture recombinant heparanase. Directly coated heparanase was detected in three separate plates by mouse (InSight Cat. INS-26-1-0000), goat (Santa Cruz, Cat. sc26136) or rabbit (Raybiotech, Cat. IP-14-155) anti-heparanase antibodies, and quantified using appropriate secondary antibodies. Antibody captured heparanase was detected using mouse anti-heparanase (Insight Cat. INS-26-1-0000). At the end of the immunisation program, fusions were performed using mouse myeloma cells and lymphocytes isolated from the spleens and lymph nodes of the immunised mice by means of electroporation, as described in Example 2.
(§5) Initial screening to detect antibodies binding to human heparanase in both direct coating and antibody capture ELISAs as described above identified 800 hybridomas for further testing; 535 IgG2 from Campaign 1 and 2 and 265 IgG4 from Campaign 2. Enzyme inhibition assays and cross species binding to cynomolgus and murine heparanase, in an antibody capture ELISA, identifed 12 antibodies that were taken forward for sub-cloning to provide purified antibodies for further analysis. Subsequently, confirmation of activity against human heparanase (FIGS. 3 and 4) and inhibition of recombinant cynomolgus and murine heparanase activity in the HS-cryptate degradation assay (FIG. 5a-c), together with sequence analysis, identified 8 antibodies that are described in the table below.

[2] = target: T5, recombinant heparanase captured with rabbit anti-heparanase antibody; experiment: ELISA binding to antibody-captured heparanase; details: antibody capture
Procedure: as §4, §5

[3] = purified antibody captured on CM4 chip, Hpa1 1 nM and 10 nM, 25° C.

Row | Binding to heparanase Cyno (cynomolgus heparanase) [OD units] | Kd (Recombinant Hpa1; 1:1 interaction model with mass transport term) [nM] | ka (Recombinant Hpa1; [3]) [M⁻¹ s⁻¹] | kd (Recombinant Hpa1; [3]) [s⁻¹] | Binding to heparanase Human (human heparanase) [OD units] | Binding to heparanase Mouse (murine heparanase) [OD units] | Binding to direct coated heparanase [1] [OD units] | Binding to captured heparanase [2] [OD units] | Molecule | Tumour growth inhibition (HCT116 xenograft) | Tumour growth inhibition (MCF7-Hpa1#19 xenograft) | Inhibition of heparanase expression (MDA MB231-Hpa1#4 cells)
1 | 0.11 | 0.0859 | 1.88e+06 | 0.000105 | 0.19 | 0.14 | 0.08 | 0.92 | 15A1.2: fully human anti-heparanase monoclonal antibody, G2κ; VH SEQ ID NO 6, VL SEQ ID NO 8; ATCC PTA-9491 (antibody, listed as Homo Sapiens, V domains shown, fully human anti-heparanase monoclonal antibody, G2κ; ATCC PTA-9491) VH: QVQLVQSGAEVKKPGASVKVSCKVSGYTLTELSMHWVRQAPGKGLEWMGGFDPEDGETIFAQKFQGRVTMTEDTSTDTAYMELSSLRSEDTAVYYCATGLRFLEWFLWGWDVWGQGTTVTVSS VL: DIQMTQSPSSVSASVGDRVTITCRASQGISNWLAWYQQTPGKAPQLLIYGASSLQSGVPSRFSGSGSGTDFTLTISSLQPEDFATYYCQQADSFPPTFGQGTKVEIK | not inhibited | not inhibited | significant inhibition of heparanase expression
2 | 0.95 | – | – | – | 0.61 | 0.14 | 3.69 | 3.27 | 14H12.3: human anti-heparanase monoclonal antibody, G2λ; VH SEQ ID NO 26, VL SEQ ID NO 28 (antibody, listed as Homo Sapiens, V domains shown) VH: QVQLVESGGGVVQPGRSLRLSCAASGFTFSSYGMHWVRQAPGKGLEWVAVIWYDGSNKDYADSVKGRFTISRDNSKNTLYLQMNSLRAEDTAVYYCAREGSTSWTDYYGMDVWGQGTTVTVSS VL: SYELTQPPSVSVSPGQTARITCSGDALPKRYAYWYQQKSGQALVLVIYEDSKRPSGIPERFSGSSSGTMATLTISGAQVEDEADYYCYSIDSSGNHGVFGGGTKLTVL | – | – | –
